Reference: US20130252987A1, “METHOD OF REGULATING PLASMA LIPOPROTEINS” (MCMASTER UNIVERSITY, priority 2010, published 2013)

How the values were obtained:
HepG2 cells [1] = assay: gas chromatography of hepatocyte lipids; format: cell-based, human; settings: 50 ng/mL, 24 hours
Description: Lipids from HepG2 cell extracts were quantified by gas chromatography (GC) as described in Sahoo et al. (J. Lipid Res. 45:1122-1131). Briefly, cell extracts were incubated with phospholipase C (Sigma, ON) to remove polar head groups, then extracted in the presence of internal standard by the method of Folch et al. (J Biol Chem 226:497-509). Extracted lipids were passed through a sodium sulfate column to remove aqueous contaminants, and derivatized with Sylon BFT (Supelco, ON) to cap reactive hydroxyl and carboxyl groups. Derivatized lipids were dissolved in hexane and injected onto a Zebron ZB-5 column (Phenomenex, Torrance, Calif.) in an Agilent 6890 GC instrument. Lipoprotein Profiles. HepG2 media from 6-10 cm plates was collected and concentrated using an Amicon Centriprep concentrator 50 K and lipoprotein classes separated by fast protein liquid chromatography (FPLC) on a Superose 6 10/30 gel filtration column (Amersham, UK) followed by inline post-column reaction with either Infinity Triglyceride or Infinity Cholesterol reagent (Thermo Scientific, West Palm Beach, Fla.) and measurement of absorbance @ 500 nm.
To quantify the hepatocyte lipid changes induced by human resistin, gas chromatography (GC) analyses of lipids extracted from harvested hepatocytes either untreated or treated with human resistin (50 ng/mL) for 24 hours was performed.

[2] = test system: primary human hepatocytes; assay: LDL receptor protein in primary human hepatocytes; format: cell-based; settings: 50 ng/mL, 24 hours
Description: Cryopreserved plateable human hepatocytes, metabolism qualified from multiple normal human donors, were obtained from CellzDirect (Invitrogen, NC). The cells were seeded at 1×10^6 cells/well in a 6-well collagen coated plate according to the manufacturer's instructions (CellzDirect, Invitrogen, NC). The cells were incubated at 37° C. with 5% CO2 for 4 hours to allow the cells to adhere. The plating media was replaced and the cells incubated for 16 hours prior to human resistin 50 ng/mL treatment for 24 hours.
To determine if the above findings in immortalized HepG2 cells are relevant to humans, primary human hepatocytes […] (Invitrogen) were treated with human resistin at the optimum 50 ng/mL dose for 24 hours. […] While the magnitude of the inhibitory effect of human resistin on LDL receptor protein expression was not as large as with HepG2 cells, this was expected as primary hepatocytes are not as metabolically active as cultured hepatoma HepG2 hepatocytes.

[3] = test system: microsomal triglyceride transfer protein (MTP); assay: MTP protein expression and activity assay; format: cell-based, human; settings: 50 ng/mL, 24 hours, HepG2 cells
Description: Cell monolayers were washed twice with ice-cold PBS and once with 5 ml of 1 mM Tris-HCl, pH 7.6, 1 mM EGTA, and 1 mM MgCl2 at 4° C. Cells were then incubated for 2 min at room temperature in 5 ml of ice-cold 1 mM Tris-HCl, pH 7.6, 1 mM EGTA, and 1 mM MgCl2. The buffer was aspirated, and 0.5 ml of the same buffer was added to cells. Cells were scraped and collected in ice-cold tubes, vortexed, and centrifuged (SW55 Ti rotor, 50,000 rpm, 10° C., 1 h), and supernatants were used for MTP assay using the MTP fluorometric activity assay kit (Chylos Inc., NY). The triglyceride transfer activity of MTP is presented as % transfer/h/mg protein.
Further tests were conducted to investigate mechanisms by which human resistin stimulated increased hepatocyte expression and secretion of apoB protein. […] It was first determined whether human resistin inhibits apoB degradation through the classic proteosome-dependent degradation pathway by adding the optimal dose of human resistin (50 ng/mL) to the proteosome-dependent inhibitor of apoB degradation, lactacystin, at the optimal dose and time (10 μM, 24 hours). An increase in the cellular expression and secretion of apoB in HepG2 cells with lactacystin was observed, confirming its apoB degradation properties (FIG. 8A.). […]

HepG2 cells [4] = assay: insulin signaling pathway protein expression, Western blot; format: cell-based, human; settings: 50 ng/mL, 24 hours
Source text: Horseradish peroxidase-conjugated antibodies (BioRad, Hercules, Calif.) were used as secondary antibodies.
Another important regulator of hepatocyte apoB/VLDL assembly and stability is the intracellular insulin signaling pathway.

HepG2 cells [5] = assay: electron microscopy of secreted VLDL fraction; format: cell-based, human; settings: 50 ng/mL, 24 hours
Description: The VLDL lipoprotein fraction was isolated from HepG2 cell media via ultracentrifugation at density of 1.006 g/mL using a Beckman Optima TL ultracentrifuge and 100.4 TLA rotor (Beckman Coulter, Brea, Calif.). Mean particle size for VLDL was then determined using the Hitachi 7000 electron microscope equipped with a AMT XR-60 digital camera. The fixation process for electron microscopy utilized 1% Os04 in a phosphate buffer at pH 7.4 applied to the VLDL fraction for a 30 minute exposure. A small drop of this solution was placed on a 400 mesh copper grid coated with a carbon film and allowed to stand for 3 minutes or until sample has dried. The fixed VLDL were placed on the electron microscope grid for viewing and digitizing. The captured images were taken at 75 KV using a beam current of 25 uA. Digital Images of the VDL were taken at about 50,000×. The mean particle size was then determined by importing the digital images into NIH image J software.
The secretion of apoB protein by HepG2 cells increased markedly by approximately 8-fold with human resistin treatment, along with the observed increases in secreted VLDL lipids. […] Furthermore, the quantity of VLDL particles found in a representative […] area was increased markedly in resistin-treated samples by a mean of 10-fold.

B1: human resistin: recombinant lyophilized purified human resistin (Calbiochem); cysteine-rich cytokine, single 12 kDa band (protein)
chain: KTLCSMEEAINERIQEVAGSLIFRAISSIGLECQSVTSRGDLATCPRGFAVTGCTCGSACGSWDVRAETTCHCQCAGMDWTGARCCRVQP
increase in cholesteryl ester content (HepG2 cells [1]): 18% | increase in free cholesterol content (HepG2 cells [1]): 3% | increase in triglyceride content (HepG2 cells [1]): 24% | LDL receptor protein versus untreated control cells [2]: significantly reduced | MTP activity [3]: significant increases | cellular MTP protein expression [3]: significant increases | decrease in expression of IRS-2, ERK, phosphorylated ERK, Akt and serine and threonine phosphorylated Akt (HepG2 cells [4]): 20-30% | increase in quantity of VLDL particles in a representative 100 cm^2 area (HepG2 cells [5]): 10 fold
